# Reference: patent publication US20060235215A1 (published 2006)
# B1: O. sativa Putative Pyrrolidone Carboxyl Peptidase, prey clone aa 92-222 (other)
# chain: FGVNSGTTRFALENQAINEATFRCPDELGWKPQRAPIVSSDGSISNLRKTTVPVNEVNKSLQQMGFDVAPSDDAGRFVCNYVYYQSLRFAEQRGIKSLFVHFPLFTTISEEVQMNFVATLLEVLASQNYAQ
# notes: prey; AD fusion; input trait library; two clones; also called OsAAG46136; PN23186
# B2: Hypothetical Protein ORF020300-2233.2, Putative PP2A Regulatory Subunit, Similar to OsCAA90866, prey clone aa 1-190 (other)
# chain: MVEVEEVSNKMQAQMRLHPAAAAEEEDADLPLPALFDKASHLHSLASSSSLDQEGIRKGVDLLRRCDEMVSKLGLFSSNETKDDVSTANLKYLLVPYYLGEMTERVAQEDRIPVLKASQDHLKEFISICEALELISEDELELSRQKQPDTMANRRAQKAARFKRQKAAETKLLEIKERKERRRRSLRAAA
# notes: prey; AD fusion; output trait library; three clones; also called OsORF020300-2233.2
# B3: O. sativa Chilling-Inducible Protein CAA90866, prey clone aa 1-126 (other)
# chain: MVEVEEVSNKMQVQMRLHPAAAAEEEDADLPLPALFDKASHLHSLASSSSLDQEGIRKGVDLLRRCDEMVSKVGLFSSNETKDDISTANLKYLLVPYYLGEMTERVAQEDRIPVLKASQDHLKEFI
# notes: prey; AD fusion; output trait library; also called OsCAA90866; PN20311
# B4: Novel Protein PN23225, Similar to Triticum aestivum Initiation Factor (iso)4f p82 Subunit, prey clone aa 639-792 (other)
# chain: FGIRILDEAQQCIEELQCPEYYSEIVKEAINLALDKGPNFIDPLVRLLEHLHTKKIFKTEDLKTGCLLYAALLEDIGIDLPLAPALFGEVVARLSLSCSLSFEVVEEILKAVEDTYFRKGIFDAVMKTMGGNSSGQAILSSHAVVIDACNKLLK
# notes: prey; AD fusion; input trait library; also called OsPN23225
# B5: Novel Protein PN23045, prey clone aa 240-287 (other)
# chain: ILSKLVQAKELLKEYVEREKKKREERSETPKSNEAVTKFDGSLNSMRH
# notes: prey; AD fusion; input trait library; two clones; also called OsPN23045
# B6: Novel Protein PN29883, Fragment, prey clone aa 58-175 (other)
# chain: YGQLKAAQPFFLLAGPNVIESEEHVLKMAKHIKGITTKLGLPLVFKSSFDKANRTSSKSFRGPGLEEGLKILEKVKATYDIPVVTDVHESHQCEAAGRVADIIQIPAFFCRQTDLLVA
# notes: prey; AD fusion; output trait library; also called OsPN29883
# B7: Hypothetical Protein ORF020300-2233.2, Putative PP2A Regulatory Subunit, Similar to OsCAA90866, prey clone aa 1-206 (other)
# chain: MVEVEEVSNKMQAQMRLHPAAAAEEEDADLPLPALFDKASHLHSLASSSSLDQEGIRKGVDLLRRCDEMVSKLGLFSSNETKDDVSTANLKYLLVPYYLGEMTERVAQEDRIPVLKASQDHLKEFISICEALELISEDELELSRQKQPDTMANRRAQKAARFKRQKAAETKLLEIKERKERRRRSLRAAALSAPIEAGEEDAFEDD
# notes: as for B2
# B8: Novel Protein 23268, Similar to Phosphoribosylanthranilate Transferase, Chloroplast Precursor, Fragment, prey clone aa 12-200 (other)
# chain: SEEEAEATLRLLLEEENEARIAAFLVLLRAKGETYEEIVGLAKAMIGCCVRVDGLDDAVDIVGTGGDGADTVNISTGSTILAAAAGAKVAKQGSRASSSACGSADGIKRCVNEVGVGFMMSANYHPAMKIVKPVRKKLKIKTVFNILGPLLNPARVPYAVIGVYHENIVTKMAKAAQKFGMKRALVVHS
# notes: prey; AD fusion; input trait library; two clones; also called OsPN23268; Os23268
# B9: Hypothetical Protein ORF020300-2233.2, Putative PP2A Regulatory Subunit, Similar to OsCAA90866, prey clone aa 93-387 (other)
# chain: LLVPYYLGEMTERVAQEDRIPVLKASQDHLKEFISICEALELISEDELELSRQKQPDTMANRRAQKAARFKRQKAAETKLLEIKERKERRRRSLRAAALSAPIEAGEEDAFEDDGEEEREAWLATISLALCKAFDLLDMLKKEEEMLLAVKERQAKDGNAFAREMLDERTKKAEAWHHNAANRAPYSKPADPITCATFAQDVIEGRASVSQAHEHKHQPLIFGPASLVGGGLTSERERMAAQVFQPSYRLPTMSIEEAGLREMKMMEKWQERTAKMIQESNSAWHKDGSRSAQED
# notes: prey; AD fusion; input trait library; also called OsORF020300-2233.2
# B10: Hypothetical Protein ORF020300-2233.2, Putative PP2A Regulatory Subunit, Similar to OsCAA90866, prey clone aa 118-388 (other)
# chain: SQDHLKEFISICEALELISEDELELSRQKQPDTMANRRAQKAARFKRQKAAETKLLEIKERKERRRRSLRAAALSAPIEAGEEDAFEDDGEEEREAWLATISLALCKAFDLLDMLKKEEEMLLAVKERQAKDGNAFAREMLDERTKKAEAWHHNAANRAPYSKPADPITCATFAQDVIEGRASVSQAHEHKHQPLIFGPASLVGGGLTSERERMAAQVFQPSYRLPTMSIEEAGLREMKMMEKWQERTAKMIQESNSAWHKDGSRSAQEDE
# notes: as for B9
# B11: O. sativa Putative Proline-Rich Protein AAK63900, prey clone aa 122-224 (other)
# chain: AAVAGKTHYRSALCASVTICGPIKKKIIDHFHKKPVPPKPEPKPEPPKPKPEPEHPFLDHIHKKEKHFFDHFHKKPVPPKPEPKPEPKPQPAPEYHNPSPPAN
# notes: prey; AD fusion; input trait library; also called OsAAK63900; PN23266
# B12: Novel Protein PN26645, Putative Protein Disulfide Isomerase-Related Protein Precursor, prey clone aa 24-164 (other)
# chain: PLPEACPVPTAAEEILGPGGTCTTLDRRGDPVGVIEGDEVTLAKAITLLHMNKDDYIAVLFYASWCPFSQECKPNFEILASLFPSIRHFAFEESSIRPSIISRYGIHGFPTLFLLNSTMRVRYHGPRTVKSLAAFYRDVSG
# notes: prey; AD fusion; input trait library; also called OsPN26645
# B13: Novel protein PN30857, prey clone aa 1-148 (other)
# chain: QDTRPLQAQRRRHGGGPQDRQREPSQGDFLRRQREEHPGGEEDRAPHGAGGHAAAGEGRGPRAGEHPQHQGGAAGAVGGGREGGGRAHLLRPRRHRDIGDRVGHTYCLSRLRRIAQNEQPSIHPCPSLAGQVIIRWEFRIGRDNNTFQ
# notes: prey; AD fusion; input trait library
# B14: Ubiquitin specific protease-like PN30843, prey clone aa 164-221 (other)
# chain: RALQNFTAEELLDGGEKQYQCQRCRKKVVAKKKFTIDKAPYVLTIHLKRFSPFNPREK
# notes: as for B13
# B15: Novel Protein PN29984, prey clone aa 1-38 (other)
# chain: APSSSSGTTSRPTASRTQQTKGRLTVTISLKAYSPGRT
# notes: as for B13
# B16: Pectinesterase-like PN30845, prey clone aa 1-64 (other)
# chain: GDQGRTYLFRVSNVGVKTSVNVRIQGHSLRLVEVEGTHPVQNVYDSLDVHVGQSVAFLVTLDKA
# notes: as for B13
# B17: NAD(P) binding domain protein PN30868, prey clone aa 167-336 (other)
# chain: YNELAQLRAGKSSKSKLLIAKFKSPKSLNGWEVDQGSYFPNTFASRFDEGIDASFDFSEAGQAVFSGFVFTRGGYVEISKRLSLPLGSTLDRYDGLLFSVGGNGRSYVVILETGPLADTSQSKKYFARMTTKVGFCRVRVPFSAFRPVNPQDPPLDPFLVHTLTIRFEPK
# notes: as for B13
# B18: Novel protein PN29983, prey clone aa 1-131 (other)
# chain: GVETVVTDTAGNKVVVTGAADAAELKERIEARTKKAVQIVSAGAGPPPKKDKEEKKDKDKKGGGDDKKAEKEKGGGGGDKKAEKEKGGGDKPKEEKKAKEPKEETVTLKIRLHCEGCIDRIKRRICKIKGG
# notes: as for B13
# B19: Novel protein PN30844, prey clone aa 1-64 (other)
# chain: VAVRKKETRDGAMQTMPSRVQQGAADFEETLFVRCHLYCSGGAGTGKPLRFEPRPFLLSAVAVE
# notes: as for B13
# B20: Isp-4 like PN30870, prey clone aa 1-446 (other)
# chain: GEEDEHPHEGRAGVERRRQHVVVLLPPPLAVLEHEVVEDGARDEPARDVGRRRRRHPGEPVGDDGDVDERDPLLLRERPAEQPHRHGQHGAGEEQPHQVAVQAVAAEQPGGADEPPDHRRVERDPVLGARPRAVRVQRLHVADVVDAAQHPPRHRQVHHAGDHRAHQLRRVHAPRRDLHVVPQLEVREERQRVHRADPPVDLEQQVRDRLPRQRVPDHELRDDVVPRLLVGGGLDDADGEGDDEGEGEGEEHPPPRQLHLLPVHERHDQRHGDAADEQHEEPPLRHLLVPPHQLRVHVHLRRRGAHRRPALPPDVPAVEQRHVHDRRREPQEPGPDGDGEQRAQVQLPVALVRRHVEVELPREHLGGVVLLPGRREQLVGEDWELPRVERVELPVAERHDEVDEHDEARGGVGDGRPRRHQRAPVVRRDAGPVQCEGADAEAVVAG
# notes: as for B13
# B21: Novel Protein PN29984, prey clone aa 5-41 (other)
# chain: SSGTTSRPTASRTQQTKGRLTVTISLKAYSPGRTRSG
# notes: as for B13
# B22: Novel Protein PN22020, Fragment, Similar to A. thaliana Putative Protein, prey clone aa 128-170 (other)
# chain: AVREPKRYYDPSPAYPAPYHQQTNRDPYAYGNTTTGGYGYAYG
# notes: prey; AD fusion; input trait library; also called OsPN22020
# B23: Novel Protein PN22823, Similar to ABC Transporter Proteins, prey clone aa 25-106 (other)
# chain: SSSGKKVPLFSLFRYADRLDVLLMVVGTVGALGNGISQPLMTVLFGNVINSFGANTSGSVLRSVTKVKVSCWTMAGERQSAR
# notes: prey; AD fusion; input trait library; also called OsPN22823
# B24: Novel Protein PN29041, Fragment, Similar to A. thaliana Putative ATPase, prey clone aa 5-108 (other)
# chain: VQIRRALRALVDDHTDGLMDFEDTEVRSSEETDALEEARLAIEQVVIPKGESVQLLPRPPSIIASQVDLVESFKLKWESIGQEPNACLRILPQFVGVEEGGKSV
# notes: prey; AD fusion; input trait library; two clones; also called OsPN29041
# B25: Novel Protein PN22020, Fragment, Similar to A. thaliana Putative Protein, prey clone aa 76-170 (other)
# chain: ANATDGVKPLVGSARLPLRDVLADTGIGARASRSLRLKRPSGRPHGRLEVRVAVREPKRYYDPSPAYPAPYHQQTNRDPYAYGNTTTGGYGYAYG
# notes: prey; AD fusion; input trait library; three clones; also called OsPN22020
# Target: T1, O. sativa Chilling-Inducible Protein CAA90866, bait clone aa 100-250 (Oryza sativa)
# T1 construct: bait; also called OsCAA90866; PN20311
# T1 chain: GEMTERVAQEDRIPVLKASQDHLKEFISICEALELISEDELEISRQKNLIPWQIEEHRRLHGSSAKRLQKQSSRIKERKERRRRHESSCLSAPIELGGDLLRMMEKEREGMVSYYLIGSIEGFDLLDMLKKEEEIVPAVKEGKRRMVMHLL
# Experiment: yeast two-hybrid
row,Binder,binding result
1,B1,binds
2,B2,binds
3,B3,binds
4,B4,binds
5,B5,binds
6,B6,binds
7,B7,binds

# Target: T2, O. sativa Serine/Threonine Protein Phosphatase PP2A-2, Catalytic Subunit, bait fragment aa 1-308 (Oryza sativa, UniProt A2XN40 1-307)
# T2 construct: bait; also called OsPP2A-2; PN20254
# T2 sequence (A2XN40 whole entry, the tested form may be a part): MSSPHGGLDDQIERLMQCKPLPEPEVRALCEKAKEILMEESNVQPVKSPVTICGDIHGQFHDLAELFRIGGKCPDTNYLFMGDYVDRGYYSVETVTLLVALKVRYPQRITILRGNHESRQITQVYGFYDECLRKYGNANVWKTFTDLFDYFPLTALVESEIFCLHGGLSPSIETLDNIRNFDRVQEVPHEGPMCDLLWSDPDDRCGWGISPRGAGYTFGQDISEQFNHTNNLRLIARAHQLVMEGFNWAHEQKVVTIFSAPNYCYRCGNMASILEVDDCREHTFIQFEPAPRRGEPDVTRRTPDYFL
# Experiment: yeast two-hybrid
row,Binder,binding result
1,B8,binds
2,B9,binds
3,B10,binds
4,B11,binds
5,B12,binds

# Target: T3, Elicitor responsive protein, bait fragment aa 50-145 (Oryza sativa, UniProt Q0JBH9 50-144)
# T3 construct: bait; also called OsERP; PN20696
# T3 sequence: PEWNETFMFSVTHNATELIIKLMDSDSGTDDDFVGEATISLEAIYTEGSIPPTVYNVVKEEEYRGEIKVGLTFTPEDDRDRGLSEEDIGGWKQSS
# Experiment: yeast two-hybrid
row,Binder,binding result
1,B13,binds
2,B14,binds
3,B15,binds
4,B16,binds
5,B17,binds
6,B18,binds
7,B19,binds
8,B20,binds
9,B21,binds

# Target: T4, O. sativa Chitinase, Class III, bait fragment aa 10-200 (Oryza sativa)
# T4 construct: bait; also called OsCHIB1; PN19651
# T4 chain: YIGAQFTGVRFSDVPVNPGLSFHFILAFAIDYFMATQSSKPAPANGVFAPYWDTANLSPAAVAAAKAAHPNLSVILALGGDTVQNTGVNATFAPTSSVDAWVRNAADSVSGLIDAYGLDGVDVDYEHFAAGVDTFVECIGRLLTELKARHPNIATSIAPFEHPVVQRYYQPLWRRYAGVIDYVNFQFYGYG
# Experiment: yeast two-hybrid
# Description: Yeast carrying the target gene construct was combined with yeast carrying the activation domain library. The two yeast strains mated to form diploid yeast and were plated on media that selected for expression of one or more Ga14p-responsive reporter genes. Thus, both hybrid proteins (i.e., the target “bait” protein and the activation domain “prey” protein) were expressed in a yeast reporter strain where an interaction between the test proteins results in transcription of the reporter genes […]. Colonies that arose after incubation were selected for further characterization. The activation domain plasmid was isolated from each colony obtained in the two-hybrid search. The sequence of the insert in this construct was obtained by sequence analysis (e.g., Sanger's dideoxy nucleotide chain termination method; see Ausubel et al., 1988, including updates up to 2002). Thus, the identity of positives obtained from these searches was determined by sequence analysis against proprietary and public (e.g., GENBANK®) nucleic acid and protein databases.
# This example provides newly characterized rice proteins interacting with a rice chitinase, class III (OsCHIB1), and with rice cellulose synthase catalytic subunit, RSW1-like (OsCS). An automated, high-throughput yeast two-hybrid assay technology (provided by Myriad Genetics Inc., Salt Lake City, Utah) was used to search for protein interactions with the chitinase and cellulose synthase bait proteins.
row,Binder,binding result
1,B22,binds
2,B23,binds
3,B24,binds
4,B25,binds
